Target: ペプチド13(Aβのaa 13-21) (UniProt P05067)
Test: ELISA on biotinylated peptides (Mimotopes format)

B1: ヒト化抗ヒトアミロイドβモノクローナル抗体hC2 (antibody, human IgG4 S228P, kappa, V domains shown)
VH: EVQLVESGGGLVQPGGSLRLSCAASGFTFSSYGMSWVRQAPGKGLELVASINSNGGSTYYPDSVKGRFTISRDNAKNSLYLQMNSLRAEDTAVYYCASGDYWGQGTTVTVSS
VL: DIVMTQSPLSLPVTPGEPASISCRSSQSLVYSNGDTYLHWYLQKPGQSPQLLIYKVSNRFSGVPDRFSGSGSGTDFTLKISRVEAEDVGVYYCSQSTHVPWTFGQGTKVEIKR
Q: For B1, which percent higher affinity than for whole Aβ1-42 protein is on record?
A: 36%
